Results on 1 substance are retold here after article PMC6817362.

The target in this assay is Recombinant mouse SIGN-R1 Fc chimera protein, extracellular domain (mouse) (UniProt Q8CJ91). In words: SPR.
Sequence of UniProt Q8CJ91 (Q8CJ91 74-325, change not shown): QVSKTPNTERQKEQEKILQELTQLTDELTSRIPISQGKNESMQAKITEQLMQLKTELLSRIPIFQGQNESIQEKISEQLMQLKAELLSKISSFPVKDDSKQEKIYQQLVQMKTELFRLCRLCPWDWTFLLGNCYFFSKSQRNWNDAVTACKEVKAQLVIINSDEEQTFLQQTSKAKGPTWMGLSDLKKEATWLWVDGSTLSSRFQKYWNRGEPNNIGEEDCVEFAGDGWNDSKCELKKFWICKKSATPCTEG

For “Hemagglutinin HA from Influenza A H1N1 (A/Puerto Rico/8/34) (from UniProt P03452) (natural protein)”, the Kd is 142 nM.
